This is an account of results in publication PMC3915751.

The test system of the data set is T1, BaeR (Erwinia amylovora Ea1189 (primers from CFBP1430 genome)), ORF:3df56c72.
T1 sequence: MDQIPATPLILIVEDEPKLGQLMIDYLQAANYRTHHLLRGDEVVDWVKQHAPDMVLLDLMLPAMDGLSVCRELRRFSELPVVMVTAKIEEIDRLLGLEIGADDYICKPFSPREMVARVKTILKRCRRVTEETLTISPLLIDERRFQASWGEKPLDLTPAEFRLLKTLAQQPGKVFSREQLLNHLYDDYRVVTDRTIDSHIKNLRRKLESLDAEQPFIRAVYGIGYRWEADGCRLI
As to the kind of experiment: EMSA. The following applies: 50 mM Tris-HCl pH 7.5, 1 mM DTT, 500 mM MgCl2, 100 mM EDTA, 10 mM NaCl ([…], room temperature 30 min.

Regarding “TGTTTGGTATTTCGTGCCATAGCGGTATGATTTACAACGCTTCAGACTTACATACATTTGCGAATGTATGTACTATAGCACGACTAAAATTTAAACGCAGCAGTGGGTTTGTAATCCATTGAACAATCGATATCGGACATTCGAGGTTTATTTATGAACAAAAACAGAGGGTTAACGCCTCTGGCGGCCGTTCTGATGCTTTCAG (double strand) [acrAB upstream region (205 bp)]”, the binding entry is listed as “binds more weakly”.

As to “TGGCTGGCAACACTGAAGCCGCCCAGGCTCAGGCCGATGAGTAAAGGGAGCAGTTTGTTCATTTGCATTCCTTGTAGTGCAGCAAAATTGTTATGGTAGCGTTGACGCAGACCAAAAATTGTCGCCGATGATAGCAGAGACTCCGGATCAGGTAAGTTGGCTGAAAGTGCCATCCTCCTTTTAATTTACTTAAATACTTCATCAAGAACCAGACATCCGGCTGATTACTATTGAACTAAACGTTTTCGCCATTATTTCAGGAGATACAGTGATGACCGCAGTGACCAATTA (double strand) [tolC upstream region (291 bp)]”, the binding result is “no binding”.
